One test deals with casein. Put plainly: Casein zymography of R. aeria cell proteins. The test is classed as biochemical. The note with it: excised bands 1-4, R. aeria cells, 1% casein. The protocol:
Bands 1-4 were excised and subjected to mass spectrometric analysis of the amino acid sequences and identification of the protein. The protein was identified as BAV86562.1 from Rothia aeria.
SDS-PAGE and casein zymography—The four cell pellets were resuspended each in 200 μl zymogram sample buffer^2. To separate the proteins, the samples were applied to a non-reducing (no DTT or β-mercaptoethanol-containing) 6% SDS-PAGE gel of 16 cm×20 cm×0.15 cm, using a protean II xi cell system (Bio-Rad, Hercules, Calif.). The composition of this gel was the same as that of previously published 6% gliadin zymogram gels but without incorporation of gliadin^2. After electrophoresis at a constant voltage of 120V at 4° C., the gel was divided in two halves (“A-gel” and “B-gel”). One-half (“A-gel”) was stained with 0.1% Coomassie Brilliant Blue in 40% (v/v) methanol/10% (v/v) acetic acid. The other half (“B-gel”) was developed as a zymogram gel^3. (See FIGS. 12A and 12B). For this, the B-gel was washed twice for 30 min in buffer containing 2.5% Triton X-100 (renaturing buffer; Life Technologies, Carlsbad, Calif.), followed by washing twice for 1 h in buffer containing 20 mM Tris-HCl, pH 7.5 (developing buffer; Life Technologies, Carlsbad, Calif.). The B-gel was then incubated in developing buffer supplemented with 1% casein (Sigma, St. Louis, Mo.) at 37° C. for 1.5 h. […]

For test [1] the following is noted: literature reference; cited from earlier work.
In test [2] the test system is R. mucilaginosa enzyme preparation (Rmep). As to the kind of experiment: Inhibitor profile of Rmep (Suc-AAPF-pNA hydrolysis). The test is classed as biochemical, Rothia mucilaginosa. Conditions: Eglin C 1.2 μM; Suc-AAPF-pNA. The protocol:
Inhibitors AEBSF, Aprotinin, E-64, EDTA, PMSF and Eglin C were tested at final concentrations of 10 mM, 0.08 mM, 0.1 mM, 1.5 mM, 1 mM, and 0.06 μM, respectively. Rmep was added at a final concentration of 5.7 μg/ml. The percent inhibition was determined from the ratio of the initial velocities of hydrolysis of Suc-AAPF-pNA (SEQ ID NO: 4) in the absence and presence of inhibitor.
(§1) Hydrolysis of paranitroanilide-derivatized substrates—Paranitroanilide (pNA)-derivatized tripeptide substrates were chemically synthesized at >90% purity (21st Century Biochemicals, Marlborough, Mass.). The substrates obtained were Z-YPQ-pNA, Z-QQP-pNA, Z-LPY-pNA, Z-PFP-pNA, Z-PPF-pNA, where Z=benzyloxycarbonyl, Y=tyrosine, P=proline, Q=glutamine, L=leucine, and F=phenylalanine Suc-AAPF-pNA (SEQ ID NO: 4) was obtained from Sigma, where Suc=N-succinyl and A=alanine. The peptides were dissolved in 75-100% DMSO at 10 mM, and were used at a final concentration of 200 μM in 50 mM TrisHCl pH 8.0. Purified Rothia enzyme or subtilisin A from Bacillus licheniformis (Sigma) were tested at final concentrations of 1 μg/ml. Some experiments were conducted in the presence of inhibitors 4-(2-Aminoethyl) benzenesulfonyl fluoride (AEBSF), Aprotinin, E-64, EDTA, phenylmethanesulfonyl fluoride (PMSF) and Eglin C, which were tested at final concentrations of 10 mM, 0.08 mM, 0.1 mM, 1.5 mM, 1 mM, and 0.06-1.2 μM, respectively. Enzymes were preincubated with the inhibitors for 20 min before adding Suc-AAPF-pNA (SEQ ID NO: 4). Substrate hydrolysis was monitored for 10 h at 405 nm using a Genios microtiter plate reader (Tecan, Männedorf, Switzerland) in the kinetic mode at 37° C.

In the next test the target is T1, subtilisin A (Bacillus licheniformis, UniProt P00780).
T1 construct: purchased Sigma
Put plainly: Inhibition of subtilisin A by Eglin C. The format is biochemical. Conditions: Eglin C 1.2 μM; Suc-AAPF-pNA. The method, then: as §1

Bounds are passed on as bounds.

The source of these data is patent US11124785B2, “Rothia subtilisins, S8A family proteases, as therapeutic enzymes for application in gluten intolerance disorders” (TRUSTEES OF BOSTON UNIVERSITY, priority 2016, dated 2021).

T1 sequence (P00780 106-379): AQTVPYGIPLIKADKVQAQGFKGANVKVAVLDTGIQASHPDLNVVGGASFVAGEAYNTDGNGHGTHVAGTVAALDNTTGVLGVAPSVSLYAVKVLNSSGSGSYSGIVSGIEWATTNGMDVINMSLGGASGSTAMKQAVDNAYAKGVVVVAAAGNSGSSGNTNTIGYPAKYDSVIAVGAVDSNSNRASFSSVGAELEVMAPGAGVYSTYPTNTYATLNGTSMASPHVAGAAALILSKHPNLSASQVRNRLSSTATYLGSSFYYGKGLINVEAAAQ

B1: KGJ00122.1: peptidase S8, subtilisin from Rothia dentocariosa (protein, listed as Rothia dentocariosa)
chain: MPKNTPIRGLSRACLSATLGVTMAITAGLPATAAPAGDPDTPVAQDIARNSREHAVLSDSMKKAEGNIPVFVQFKGKGAYEQTQSPAVLANKQAPINKQAEVQAIKTQVQSQAQAAAQSTGAKTLYTTHNIMRGVALQGDAAQIRALANNPEVERITPIVPKKKQNAGSVVDTGAAENWARENSGYTGKDVKIAVVDSGIDYTHSDFGGPGTVEAFNKATKLTEMPAADSGLYDAKKYIGGYDLVGDSYDGTNQTTPDNNPIDCSAGGHGTHVAGTAAGYGVNQDGTTFRGDYSKLTAEQLNQMKIGPGAAPEAQLYSFRVFGCTGTTAVVVQALDRTLDPNGDGDFSDRANIVNLSIGGEFSPPDDADAYAVESLNRQGVLAVVSAGNATDYYGRGDTYSDSGQPANAVSALTVANSIGSSYAVDSMEIQAPANVAGKVPGDYTVSYTYTGAKPEALTGTVVTPSESNKFGCEAFSAEDAAKIKDKWVFIEWANADGSLPCGSKVRFDNVEKAGGKGVVLSSEEEKPALPIGGNESIPGFRVAKSASAKVREAAATGELKVRLGADLKESLRVPSNKKDQLTASSARGYHGTYGYTKPDVAAPGNNISSARVGTGTGGISYTGTSMSAPFAAGVAAQVLQANQSYGPTQLKAAIMNSANHDVRTADGNVYAVDRVGSGRIDAKAAAETKVLLYNADRPAQVSQTFGVLEYAVNEGKQTLTREMTVENFDSHTHTYNISYAGSTDMPGVEFSLPSNITVNPGEKKNFTVTITIDPAAMEKTMDPAMEKTHNSVDPYGDGTELVPEQYRQFIASESGRILLTEGAATLRAPIHAAPKPASAMKVEGSSVEIPAGEHQANLKLTGTELNQRGYKSLLGAFEHGASIERTSPVKLDVSSNAKANMQHVGAASTAPALKASGGNPNDGLLAFGISTWANWDVVSTENTFTVNIDTDGNNRADYMLVTDRAKGIDFPIVRLYGYKNGNLEQIAYYPLNNAWGDTDTNMMDSNALVMAVPLKDLGLSAEKTKDIKYSVSATTQYAWTNVSETGWINYRPFDPKLWFSGTAATVPGFFADAPSSELVAHRAEGATDVKALFLHMHNTTGDLSGLNGAAGNRAQVLEVTEQQQLDPAPSRFTDVPAENQFYAEINWLAQRRITTGYPDGTFRPGENVERGAMAAYFYRLAGTPQFTAPDNPTFSDVPKSHPFYKEIEWMAARGITTGYGDGTFRPSDSVNRDAMAAFFYRYANSPQFAAPAASPFKDVPANSQFYKEIAWLAEQGITKGWDDGTYRPGEPIHRDAMAAFLYRYSDKVLK
With B1, in the test on casein, the “activity in the casein degradation assay (zymogram)” value is on record as “gluten-degrading properties”.

B2: BAV86562.1: Rothia aeria protein annotated glycerol-3-phosphate ABC transporter, belongs to the subtilisin family (peptidase S8) (protein, listed as Rothia aeria)
chain: MAITAGLPATAAPAGDPDTPVAQDIARNSREHAVLSDSMKKAEGNIPVFVQFKGKGAYEQTQSPAVLANKQAPTNKQAEVQAIKTQVQSQAQAAAQSTGAKTLYTTHNIMRGVALQGDAAQIRALANNPEVERITPIVPKKKQNAGSVVDTGAAENWARENSGYTGKDVKIAVVDSGIDYTHADFGGPGTVEAFNKATKLTEMPAADSGLYDAKKYIGGYDLVGDSYDGTNQTAPDNNPIDCSAGGHGTHVAGTAAGYGVNQDGTTFRGDYSKLTAEQLNQMKIGPGAAPEAQLYSFRVFGCTGTTGVVVQALDRTLDPNGDGDFSDRANIVNLSIGGEFSPPDDADAYAVESLNRQGVLAVVSAGNATDYYGRGDTYSDSGQPANAVSALTVANSIGSSYAVDSMEIQAPANVAGKVPGDYTVSYTYTGAKPEALTGTVVTPSESNKFGCEAFSAEDAAKIKDKWVFLEWANADGSLPCGSKVRFDNVEKAGGKGVVLSSEEEKPALPIGGNESIPGFRVAKSASAKVREAAANGELKVRLGTDLKESLRVPSNKKDQLTASSARGYHGTYGYTKPDVAAPGNNISSARVGTGTDGISYTGTSMSAPFAAGVAAQVLQANQSYGPTQLKAAIMNSANHDVRTADGNVYAVDRVGSGRIDAKAAAETKVLLYNADRPAQVSQTFGVLEYAVNEGKQTLTREMTVENFDSHTHTYNISYAGSTDMPGVEFSLPSNITVNPGEKKNFTVTITIDPAAMEKTMDPAMEKTHNSVDPYGDGTELVPEQYRQFIASESGRILLTEGAATLRAPIHAAPKPASAMKVEGSSVEIPAGEHQANLKLTGTELNQRGYKSLLGAFEHGASIERTSPVKLDVSSNAKANMQHVGAASTAPALKASGGNPNDGLLAFGISTWANWDVVSTENTFTVNIDTDGNNRADYMLVTDRAKGIDFPIVRLYGYKNGNLEQIAYYPLNNAWGDTDTNMMDSNALVMAVPLKDLGLSAEKTKDIKYSVSATTQYAWTNVSETGWINYRPFDPKLWFSGTAATVPGFFADAPSSELVAHRAEGATDVKALFLHMHNTTGDLSGLNGAAGNRAQVLEVTEQQQLDPAPSRFTDVPAENQFYAEINWLAQRRITTGYPDGTFRPGENVERGAMAAYFYRLAGTPQFTAPDNPTFSDVPKSHPFYKEIEWMAARGITTGYGDGTFRPSASVNRDAMAAFFYRYANSPQFAAPAASPFKDVPANSQFYKEIAWLAEQGITKGWDDGTYRPGEPIHRDAMAAFLYRYSDKVLK
With B2, the “pH values down to which activity is retained” value in test [1] is listed as ≥ 3.0.

B3: Eglin C: an effective inhibitor of B. licheniformis subtilisin A (protein)
chain: TEFGSELKSFPEVVGKTVDQAREYFTLHYPQYDVYFLPEGSPVTLDLRYNRVRVFYNPGTNVVNHVPHVG
On to B3, for which the “inhibition of Rmep by high concentrations of Eglin C” value in test [2] was “only partly inhibited”. The “inhibition of B. licheniformis subtilisin A by Eglin C” value with subtilisin A was “effective inhibitor”.
